Test results taken from article PMC9492806.

Target: Recombinant human IGF-II R (cation-independent mannose-6-phosphate receptor, CI-MPR) (human) (UniProt P11717)
Experiment: SPR

Row | Kd | Substance
1 | 29.6 nM | cetuximab M6P-glycoform 10 (cetuximab carrying the bis-phosphorylated heptasaccharide moiety at the Fc glycosylation site) (antibody)
2 | 700 nM | trastuzumab M6P-glycoform 6 (trastuzumab carrying the M6P-Man3GlcNAc2 glycan at the Fc glycosylation site) (antibody)

Continued, substance first:

Row | Substance | Kd
3 | cetuximab M6P-glycoform 9 (cetuximab carrying the M6P tetrasaccharide moiety at the Fc glycosylation site) (antibody) | 70.3 nM
4 | trastuzumab M6P-glycoform 3 (trastuzumab carrying the M6P tetrasaccharide moiety at the Fc glycosylation site) (antibody) | 28.6 nM
5 | trastuzumab M6P-glycoform 7 (trastuzumab carrying the bis-phosphorylated heptasaccharide moiety at the Fc glycosylation site) (antibody) | 5.4 nM
